# Measured values published in PMC7888582 (Protein Science : A Publication of the Protein Society, 2021).
# How the values were obtained:
# Assay in all cases: SEC
# [1] = target: GGGPS of Nitrososphaera viennensis (nvGGGPS) (Nitrososphaera viennensis)
# [2] = target: mtGGGPS_W141A (Methanothermobacter thermautotrophicus)
# [3] = target: mtGGGPS_W141H (Methanothermobacter thermautotrophicus)
# [4] = target: the molecule itself
molecule,measurement,setting,value
GGGPS of Nitrososphaera viennensis (nvGGGPS) (enzyme),stoichiometry N,[1],6
mtGGGPS_W141A (enzyme),stoichiometry N,[2],2
mtGGGPS_W141H (enzyme),stoichiometry N,[3],6
wild-type Methanothermobacter thermautotrophicus GGGPS (mtGGGPS) (enzyme) MKVEDYFHDILRERKIHLTLIDPEEQTPEEAVEIARAAIRGGTDGIMLGGSTTDSSELDNTARALRENIDVPIILFPGNTTGVSRYADAIFFMSLLNSTNPYWIIGAQALGAATVKKMGIEALPMGYLVVEPGGTVGWVGDTKPVPRNKPDIAAAYAMAAEFLGMRLFYLEAGSGAPEHVPEEMIALVKRCTDQILIVGGGIRSGEDAARVAGAGADVVVTGTVVENSDNVEDKIREIVEGMGSV,stoichiometry N,[4],6
